Test results reported in US20220185900A1 (Regeneron, published 2022).

T1: Macaca fascicularis (mf) RET.mmh (Macaca fascicularis)
T1 construct: also called monkey RET
T1 chain: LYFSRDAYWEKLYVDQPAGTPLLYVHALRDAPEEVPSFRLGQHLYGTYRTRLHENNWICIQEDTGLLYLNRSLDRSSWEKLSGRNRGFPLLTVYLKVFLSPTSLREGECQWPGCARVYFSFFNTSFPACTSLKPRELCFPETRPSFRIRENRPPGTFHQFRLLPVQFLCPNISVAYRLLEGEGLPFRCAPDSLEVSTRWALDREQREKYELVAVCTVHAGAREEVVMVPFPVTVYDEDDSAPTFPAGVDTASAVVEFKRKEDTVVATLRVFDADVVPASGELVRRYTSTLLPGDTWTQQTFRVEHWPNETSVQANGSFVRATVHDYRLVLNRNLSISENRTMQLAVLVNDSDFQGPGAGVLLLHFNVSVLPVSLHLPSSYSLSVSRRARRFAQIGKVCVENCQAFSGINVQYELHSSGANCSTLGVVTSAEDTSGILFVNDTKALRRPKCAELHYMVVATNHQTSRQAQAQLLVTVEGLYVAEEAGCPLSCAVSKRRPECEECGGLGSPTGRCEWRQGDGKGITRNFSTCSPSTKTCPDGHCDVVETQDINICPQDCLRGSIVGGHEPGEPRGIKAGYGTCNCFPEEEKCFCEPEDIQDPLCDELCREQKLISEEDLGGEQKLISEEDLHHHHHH

B1: H4H8079P (antibody, human IgG4, V domains shown)
VH: EVQLVESGGGLVKPGGSLRLSCAASGFTFSNAWMSWVRQAPGKGLEWVGRIKSKTDGGTSEYAAPVKGRFTISRDDSKNTLFLQMNSLKSEDAAVYYCTTGRSWSDYFDFWGQGTLVTVSS
VL: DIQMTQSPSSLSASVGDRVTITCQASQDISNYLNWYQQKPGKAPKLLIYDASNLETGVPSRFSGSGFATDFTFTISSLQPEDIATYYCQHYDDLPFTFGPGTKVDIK
notes: human IgG4 Fc (H4H prefix)
B2: H4H8044P (antibody, human IgG4, V domains shown)
VH: QVQLVESGGGVVQPGRSLRLSCAASGFTFSGSGMHWVRQAPGKGLEWVAVIWEDGSNKYYADSVRGRFTISRDNFKNTLYLQMNSLRAEDTAVYYCARQTMVRGVIRFYYYYYGMDVWGQGTTVTVSS
VL: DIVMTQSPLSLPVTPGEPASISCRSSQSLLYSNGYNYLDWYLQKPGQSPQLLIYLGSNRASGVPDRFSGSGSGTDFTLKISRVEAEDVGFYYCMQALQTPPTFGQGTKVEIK
notes: human IgG4 Fc (H4H prefix)
B3: H4H8045P (antibody, human IgG4, V domains shown)
VH: EVQLVESGGALVQPGGSLRLSCAASGFTFSNYAMTWVRQAPGMGLEWVSGISSSGASTFYADSVKGRFTISRDNSKNTLYLQMNSLRAEDTAVYYCAKEDYWGWFDYWGQGTLVTVSS
VL: DIQLTQSPSFLSASVGDRVTITCWASQDVSSYLAWYQQEPGKAPKVLIYDASTLQSGVPSRFSGSGSGTEFTLTISSLQPEDFAPYYCQQLNSYPYTFGQGTKLEIK
notes: human IgG4 Fc (H4H prefix)
B4: H4H8046P (antibody, human IgG4, V domains shown)
VH: QVQLVQSRDEVKKPGASVKVSCKASGYTFTTYGISWVRQAPGQGLEWMGWINTYNGDTNYAQKVQDRVIMTTDTSTSTAYMELRSLRSDDTAVYFCAGARPLGGRRAFDIWGQGTMVTVSS
VL: DIQMTQSPSSLSASVGDRVTITCRASQGISHYLAWYQQKPGKVPKLLIYAASTLQSGVPSRFSGSGSGTDFTLTISSLQPEDVATYYCQKYNSVPWTFGQGTKVEIK
notes: human IgG4 Fc (H4H prefix)

Columns and labels:
[1] = biological target: T2, hRET.mmh (human, UniProt P07949 29-635, biotinylated in the ELISA of Example 4 (biot-hRET.mmh); not in the SPR of Example 3); test: SPR Biacore T200, mAb capture, 25 C
T2 construct: also called biot-hRET.mmh; soluble monomeric human RET
Protocol: (§1) Binding affinities and kinetic constants of human anti-RET antibodies were determined by surface plasmon resonance (Biacore T200) at […] (Tables 2-3). […] Binding equilibrium dissociation constants (KD) and dissociative half-lives (t_{1/2}) were calculated from the kinetic rate constants as: KD [M]=kd/kₐ; and t_{1/2}(min)=(ln2/(60*kd). Calculations were performed using BiacoreT200 evaluation software v1.0.

[2] = biological target: T1, Macaca fascicularis (mf) RET.mmh; test: SPR Biacore T200, mAb capture, 25 C
Protocol: as §1

[3] = biological target: T3, hRET.mFc (human); test: SPR Biacore T200, mAb capture, 25 C
T3 construct: also called dimeric human RET
Protocol: as §1

[4] = biological target: T2, hRET.mmh; test: competition sandwich ELISA: 1 nM biot-hRET.mmh + antibody, plate-coated GDNF/GFRα1 co-complex
Protocol: The ability of anti-RET antibodies to block the binding of human RET to pre-complexed plate bound GDNF:GFRα1 was assessed using a competition sandwich ELISA.
Antibody-RET mixtures were incubated for 1 hour at RT and then transferred to microtiter plates previously coated with the hGDNF/hGFRα1 co-complex. Binding was allowed to proceed for 1 hr at RT followed by extensive washing. […] Plates were read at 450 nm and data analysis used a sigmoidal dose-response model within Prism™ software.
The absorbance values of the wells containing the highest concentration for each antibody were used to determine the blocking percent at maximum concentration antibody tested.

[5] = biological target: T2, hRET.mmh; test: SPR Biacore T200, mAb capture, 37 C
Protocol: as §1

[6] = biological target: T1, Macaca fascicularis (mf) RET.mmh; test: SPR Biacore T200, mAb capture, 37 C
Protocol: as §1

[7] = biological target: T3, hRET.mFc; test: SPR Biacore T200, mAb capture, 37 C
Protocol: as §1

Binder | Kd [1] | koff [1] | kon [1] | t½ [1] | Kd [2] | koff [2] | kon [2] | t½ [2] | Kd [3] | koff [3] | kon [3] | t½ [3] | % Max Blocking [4] | IC50 [4] | Kd [5] | koff [5] | kon [5] | t½ [5] | Kd [6] | koff [6] | other results
B1 | 2.68 nM | 0.000384 s⁻¹ | 143000 M⁻¹ s⁻¹ | 30 min | 3.73 nM | 0.000435 s⁻¹ | 117000 M⁻¹ s⁻¹ | 27 min | 0.72 nM | 0.000151 s⁻¹ | 209000 M⁻¹ s⁻¹ | 77 min | 93% | < 0.25 nM | 9.1 nM | 0.00189 s⁻¹ | 207000 M⁻¹ s⁻¹ | 6 min | 13.3 nM | 0.00205 s⁻¹ | kon [6]: 154000 M⁻¹ s⁻¹; t½ [6]: 6 min; Kd [7]: 2 nM; koff [7]: 0.000523 s⁻¹; kon [7]: 261000 M⁻¹ s⁻¹; t½ [7]: 22 min
B2 | 5.49 nM | 0.000488 s⁻¹ | 88800 M⁻¹ s⁻¹ | 24 min | 14.7 nM | 0.00135 s⁻¹ | 92000 M⁻¹ s⁻¹ | 9 min | 1.97 nM | 0.000211 s⁻¹ | 107000 M⁻¹ s⁻¹ | 55 min | 91% | 5.2 nM | 18.6 nM | 0.00281 s⁻¹ | 151000 M⁻¹ s⁻¹ | 4 min | 48.5 nM | 0.00521 s⁻¹ | kon [6]: 108000 M⁻¹ s⁻¹; t½ [6]: 2 min; Kd [7]: 6.21 nM; koff [7]: 0.00085 s⁻¹; kon [7]: 137000 M⁻¹ s⁻¹; t½ [7]: 14 min
B3 | 0.883 nM | 0.000246 s⁻¹ | 279000 M⁻¹ s⁻¹ | 47 min | 14.6 nM | 0.0028 s⁻¹ | 192000 M⁻¹ s⁻¹ | 4 min | 0.229 nM | 8.71e-05 s⁻¹ | 381000 M⁻¹ s⁻¹ | 133 min | 75% | 0.34 nM | 3.22 nM | 0.00127 s⁻¹ | 395000 M⁻¹ s⁻¹ | 9 min | 50.3 nM | 0.0131 s⁻¹ | kon [6]: 261000 M⁻¹ s⁻¹; t½ [6]: 1 min; Kd [7]: 0.834 nM; koff [7]: 0.000382 s⁻¹; kon [7]: 459000 M⁻¹ s⁻¹; t½ [7]: 30 min
B4 | 0.984 nM | 0.000301 s⁻¹ | 306000 M⁻¹ s⁻¹ | 38 min | 1.13 nM | 0.000315 s⁻¹ | 278000 M⁻¹ s⁻¹ | 37 min | 0.645 nM | 0.000181 s⁻¹ | 280000 M⁻¹ s⁻¹ | 64 min | 95% | < 0.25 nM | 1.81 nM | 0.0013 s⁻¹ | 718000 M⁻¹ s⁻¹ | 9 min | 1.92 nM | 0.00135 s⁻¹ | kon [6]: 704000 M⁻¹ s⁻¹; t½ [6]: 9 min; Kd [7]: 2.05 nM; koff [7]: 0.000694 s⁻¹; kon [7]: 338000 M⁻¹ s⁻¹; t½ [7]: 17 min
